{"source": "paper PMC11724288", "about": "“Structural and kinetic insights into tRNA promoter engagement by yeast general transcription factor TFIIIC”", "binders": {"B1": {"name": "mA/B (EMSA) (dsDNA)", "DNA 1": "TCCATTGAAAAGTCGCCATCTAACTATTGTCGTTAGTACACATCGTTGTGGCCGATGAAACCCTGGTTCGATTCTAGGAGATGGCATTTT", "DNA 2": "AAAATGCCATCTCCTAGAATCGAACCAGGGTTTCATCGGCCACAACGATGTGTACTAACGACAATAGTTAGATGGCGACTTTTCAATGGA"}, "B2": {"name": "85-bp tRNAHis (dsDNA)", "DNA 1": "TGAAAAGTCGCCATCTTAGTATAGTGGTTAGTACACATCGTTGTGGCCGATGAAACCCTGGTTCGATTCTAGGAGATGGCATTTT", "DNA 2": "AAAATGCCATCTCCTAGAATCGAACCAGGGTTTCATCGGCCACAACGATGTGTACTAACCACTATACTAAGATGGCGACTTTTCA"}}, "key": {"[1]": {"target": "T1, TFIIICΔtail (τ138, τ131, τ95Δtail, τ91, τ60, τ55) (Saccharomyces cerevisiae, UniProt P34111;P33339;P32367;Q06339;Q12308;Q12415 1-1160;1-1025;1-593;1-672;1-588;1-435)", "assay": "EMSA; not significantly changed versus A/B; 100-900 nM protein; Buffer FB: 20 mM HEPES pH 7.5, 150 mM KCl, 2 mM MgCl2, 5 mM DTT; filter binding 1 h at 4 C; EMSA 20 min RT with 1 ug poly-dI/dC, gel at 4 C; footprint 30 min RT, DNase I 28 C", "conditions": "protein: recombinant; copies: 1;1;1;1;1;1; label: 32P"}, "[2]": {"target": "T1, TFIIICΔtail (τ138, τ131, τ95Δtail, τ91, …)", "assay": "filter binding; 150 mM KCl, 4 C, apparent Kd, Hill coefficient 1, N=1; Buffer FB: 20 mM HEPES pH 7.5, 150 mM KCl, 2 mM MgCl2, 5 mM DTT; filter binding 1 h at 4 C; EMSA 20 min RT with 1 ug poly-dI/dC, gel at 4 C; footprint 30 min RT, DNase I 28 C", "conditions": "protein: recombinant; copies: 1;1;1;1;1;1; blunt"}}}
{"binder": "B1", "values": [{"measurement": "binding result", "setting": "[1]", "value": "binds"}]}
{"binder": "B2", "values": [{"measurement": "Kd", "setting": "[2]", "value": "30 ± 1", "unit": "nM"}]}
